Assay results published in paper PMC12246787.
Blank lines part the entries; values can stand above or below the substance they belong to.

Target: FcγRIIIa receptor immobilised on the TSKgel FcR-IIIA-NPR column (UniProt P08637)
Assay: FcγRIIIa affinity chromatography; FcγRIIIa immobilised on a TSKgel FcR-IIIA-NPR column (4.6 x 75 mm); antibody injected (20 µL); 0.05 M sodium citrate, 0.150 M NaCl, 10 min at pH 6.5, then linear gradient to pH 4.5 in 40 min; 0.375 mL/min; 20°C; UV 280 nm; eluting peaks collected and their glycoforms assigned by HILIC-MS

Sequence of UniProt P08637 (P08637 17-208): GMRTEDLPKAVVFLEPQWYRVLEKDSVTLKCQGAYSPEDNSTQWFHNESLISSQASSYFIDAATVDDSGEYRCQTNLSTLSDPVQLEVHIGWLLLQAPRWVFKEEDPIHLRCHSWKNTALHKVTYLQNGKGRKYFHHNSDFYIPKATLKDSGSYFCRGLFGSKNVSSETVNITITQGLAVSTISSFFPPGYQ

RT (min) on the FcγRIIIa column, peak #1 (G0F 74%, G1F 25%): 22.9 min | RT (min) on the FcγRIIIa column, peak #2 (G0F 43%, G1F 43%, G2F 14%): 28.2 min | RT (min) on the FcγRIIIa column, peak #3 (G1F 72%, G2F 28%): 33.2 min
Substance: commercial rituximab (MabThera) produced in CHO cells (antibody)

RT (min) on the FcγRIIIa column, peak #1 (G0 100%): 30.5 min
Substance: rituximab produced in glycoengineered ΔXF N. benthamiana plants (antibody)

RT (min) on the FcγRIIIa column, peak #1 (Man8 14%, Man9 86%): 24.9 min
Substance: rituximab produced in wild-type N. benthamiana agroinfiltrated in the presence of the kifunensine mannosidase I inhibitor (antibody)

RT (min) on the FcγRIIIa column, peak #1 (G0 100%): 30.3 min
Substance: rituximab produced in wild-type N. benthamiana, G0 glycoform (antibody)
